The record followed here is article PMC6718376.

What is called Kd is the constant that tells how readily two partners part at equilibrium. The koff is a measure of how fast the partners let go of each other. Usually kon stands for a measure of how fast the partners come together.

The target of experiment [1] is respiratory syncytial virus protein F (respiratory syncytial virus) (UniProt P03420). Nature of the experiment: plasmonic light-scattering biosensor array (localised gold nanoparticle plasmon); Fab assay: RSVF immobilised on array spots by EDC/NHS coupling, BSA reference spots and BSA blocking; NISTmAb injected at 1.56, 3.23 and 6.25 nM in PBS; global fit to the Langmuir 1:1 model.

For experiment [2], the target named is Pierce recombinant protein A/G. Nature of the experiment: plasmonic light-scattering biosensor array (localised gold nanoparticle plasmon); Fc assay: protein A/G immobilised on array spots by EDC/NHS coupling, BSA reference spots and BSA blocking; antibody in PBS; NISTmAb kinetics from a global Langmuir fit to low concentrations with ϑm floating; all antibody samples at 100 nM for 300 s, 500 s wash.

The target in experiment [3] is NISTmAb (NIST RM 8671), recombinant humanized IgG1κ specific to respiratory syncytial virus protein F (human (humanized IgG1κ)). As to the kind of experiment: plasmonic light-scattering biosensor array (localised gold nanoparticle plasmon); antigen assay: antibody (100 nM) first captured by its Fc on the protein A/G surface, then antigen at 100 nM in PBS injected for 300 s; stoichiometry from ϑm antigen/ϑm Fc normalised for the masses of antigen and intact IgG.
Sequence of NISTmAb (NIST RM 8671), recombinant humanized IgG1κ specific to respiratory syncytial virus protein F (human (humanized IgG1κ)) (heavy, as listed by the source, chain 1 of 2): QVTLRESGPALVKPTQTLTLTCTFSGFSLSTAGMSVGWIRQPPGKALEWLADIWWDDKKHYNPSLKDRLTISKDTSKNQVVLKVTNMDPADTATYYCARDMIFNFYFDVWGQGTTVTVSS
Sequence of NISTmAb (NIST RM 8671), recombinant humanized IgG1κ specific to respiratory syncytial virus protein F (human (humanized IgG1κ)) (light, as listed by the source, chain 2 of 2): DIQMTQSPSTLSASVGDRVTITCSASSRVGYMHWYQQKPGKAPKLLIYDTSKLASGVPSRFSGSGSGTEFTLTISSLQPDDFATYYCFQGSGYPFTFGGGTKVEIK

As for “NISTmAb (NIST RM 8671), recombinant humanized IgG1κ specific to respiratory syncytial virus protein F (antibody)”, in experiment [1], the Kd was 2.7 nM, the dissociation rate constant (koff) was 0.00024 s⁻¹ and the kon came to 89000 M⁻¹ s⁻¹. Besides, in experiment [2], the koff was found to be 2e-05 s⁻¹ and the kon worked out at 59000 M⁻¹ s⁻¹.

With “respiratory syncytial virus protein F (from UniProt P03420 26-574) (natural protein)”, the stoichiometry N (antigens per antibody) in experiment [3] came to 1.31.
